PMC3169560 (PLoS Pathogens, 2011)

Biological target: T1, HIV-1 Env glycoprotein complex (gp120/gp41) with full-length gp41, on HIV-1 particles of proviral clone R9 … (HIV-1 group M subtype B, proviral clone …)
T1 construct: also called WT; wild-type HIV-1; copies: 3 + 3
Assay: immunofluorescence imaging of antibody binding to single immobilised virions; IMMATURE, protease-defective particles (R9.PR- or R9Tr712.PR-) with GFP-Vpr on poly-D-lysine coated dishes; unfixed virions incubated with IgG or CD4-IgG2 (0.25 µg/mL) for 2 h at room temperature, fixed in 2% paraformaldehyde, Cy5 anti-human IgG, confocal microscopy; median average Cy5 intensity per GFP-positive particle; CD4-IgG2 results …
Settings: one partner purified

B1: HIV-1 gp41 mAb 4E10 (full-length IgG) (antibody, V domains shown)
VH: QVQLVQSGAEVKRPGSSVTVSCKASGGSFSTYALSWVRQAPGRGLEWMGGVIPLLTITNYAPRFQGRITITADRSTSTAYLELNSLRPEDTAVYYCAREGTTGWGWLGKPIGAFAHWGQGTLVTVSS
VL: EIVLTQSPGTQSLSPGERATLSCRASQSVGNNKLAWYQQRPGQAPRLLIYGASSRPSGVADRFSGSGSGTDFTLTISRLEPEDFAVYYCQQYGQSLSTFGQGTKVEVK
notes: copies: 2 + 2
fold increase in binding to immature over mature virions, particles with an average intensity above 50 a.u.: 6 fold | median average intensity per particle, PR- image over wild-type image: 1.4 fold
